Source: patent US20120121591A1 (priority 2009, published 2012)
Read-outs that look alike come from different tables or passages of the source. No end group written: not given here.

Experiments:
[1] = biological target: Glycine (Strychnine insensitive) (Cerep target) (human)
[2] = biological target: NMDA (Cerep target) (human)
BKCa (human) = BKCa (human) (UniProt Q12791); assay: cell-based or functional assay
[3] = biological target: cynomolgus monkey T cell Kv1.3 (cynomolgus monkey); assay: cell-based or functional assay
hCav1.2 (ICa) (human) = hCav1.2 (ICa) (human) (UniProt Q13936); assay: cell-based or functional assay
hERG (IKr) (human) = hERG (IKr) (human) (UniProt Q12809); assay: cell-based or functional assay
hKv1.2 [4] = biological target: T1, hKv1.2 (Homo sapiens, UniProt P16389); assay: cell-based or functional assay
T1 sequence (P16389 whole entry): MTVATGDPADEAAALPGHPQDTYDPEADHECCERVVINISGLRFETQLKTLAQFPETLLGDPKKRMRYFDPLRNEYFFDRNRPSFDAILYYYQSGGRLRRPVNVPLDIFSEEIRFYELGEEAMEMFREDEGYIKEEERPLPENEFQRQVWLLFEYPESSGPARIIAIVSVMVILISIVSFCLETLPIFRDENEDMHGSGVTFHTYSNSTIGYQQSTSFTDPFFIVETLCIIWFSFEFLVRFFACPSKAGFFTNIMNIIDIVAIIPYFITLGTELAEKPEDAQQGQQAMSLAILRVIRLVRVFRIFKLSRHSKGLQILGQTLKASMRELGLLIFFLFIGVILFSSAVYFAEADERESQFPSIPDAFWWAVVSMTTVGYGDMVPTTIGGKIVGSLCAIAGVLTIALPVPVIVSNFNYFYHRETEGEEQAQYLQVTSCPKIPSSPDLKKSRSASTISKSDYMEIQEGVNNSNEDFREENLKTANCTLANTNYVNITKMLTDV

hKv1.4 [5] = biological target: T2, hKv1.4 (Homo sapiens, UniProt P22459); assay: cell-based or functional assay
T2 sequence (P22459 whole entry): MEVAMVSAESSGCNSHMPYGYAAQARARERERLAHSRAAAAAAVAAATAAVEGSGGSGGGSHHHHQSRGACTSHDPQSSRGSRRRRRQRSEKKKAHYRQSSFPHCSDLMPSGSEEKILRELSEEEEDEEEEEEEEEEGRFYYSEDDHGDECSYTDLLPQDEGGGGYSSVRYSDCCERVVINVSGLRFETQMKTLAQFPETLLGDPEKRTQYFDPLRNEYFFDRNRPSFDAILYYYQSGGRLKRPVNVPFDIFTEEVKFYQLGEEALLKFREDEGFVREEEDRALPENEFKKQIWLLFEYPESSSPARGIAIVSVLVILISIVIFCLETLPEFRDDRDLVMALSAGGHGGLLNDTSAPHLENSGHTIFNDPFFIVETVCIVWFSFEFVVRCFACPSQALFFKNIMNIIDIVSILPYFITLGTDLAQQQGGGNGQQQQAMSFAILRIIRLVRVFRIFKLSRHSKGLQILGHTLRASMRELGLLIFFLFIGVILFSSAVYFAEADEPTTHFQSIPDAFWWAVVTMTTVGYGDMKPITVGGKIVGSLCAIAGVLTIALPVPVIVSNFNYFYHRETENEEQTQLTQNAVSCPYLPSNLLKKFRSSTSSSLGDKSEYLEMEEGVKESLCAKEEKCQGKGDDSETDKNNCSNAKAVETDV

hKv1.5 [6] = biological target: T3, hKv1.5 (Homo sapiens, UniProt P22460); assay: cell-based or functional assay
T3 sequence (P22460 whole entry): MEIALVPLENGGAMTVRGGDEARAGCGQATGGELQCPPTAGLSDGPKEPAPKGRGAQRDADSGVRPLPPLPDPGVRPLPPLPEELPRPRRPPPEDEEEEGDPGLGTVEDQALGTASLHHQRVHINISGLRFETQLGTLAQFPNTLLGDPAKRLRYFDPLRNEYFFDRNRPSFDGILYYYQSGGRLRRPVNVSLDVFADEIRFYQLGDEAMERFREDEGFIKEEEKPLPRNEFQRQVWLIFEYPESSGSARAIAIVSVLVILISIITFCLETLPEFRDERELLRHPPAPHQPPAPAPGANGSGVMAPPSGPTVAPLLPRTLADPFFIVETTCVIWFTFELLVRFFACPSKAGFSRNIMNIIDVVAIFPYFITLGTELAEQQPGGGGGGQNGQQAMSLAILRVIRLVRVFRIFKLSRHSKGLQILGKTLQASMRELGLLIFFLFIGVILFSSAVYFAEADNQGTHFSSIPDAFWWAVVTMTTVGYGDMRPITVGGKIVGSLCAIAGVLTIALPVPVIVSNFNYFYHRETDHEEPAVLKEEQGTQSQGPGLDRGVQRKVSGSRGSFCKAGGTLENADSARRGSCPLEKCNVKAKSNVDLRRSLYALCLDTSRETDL

hKv1.6 [7] = biological target: T4, hKv1.6 (Homo sapiens, UniProt P17658); assay: cell-based or functional assay
T4 sequence (P17658 whole entry): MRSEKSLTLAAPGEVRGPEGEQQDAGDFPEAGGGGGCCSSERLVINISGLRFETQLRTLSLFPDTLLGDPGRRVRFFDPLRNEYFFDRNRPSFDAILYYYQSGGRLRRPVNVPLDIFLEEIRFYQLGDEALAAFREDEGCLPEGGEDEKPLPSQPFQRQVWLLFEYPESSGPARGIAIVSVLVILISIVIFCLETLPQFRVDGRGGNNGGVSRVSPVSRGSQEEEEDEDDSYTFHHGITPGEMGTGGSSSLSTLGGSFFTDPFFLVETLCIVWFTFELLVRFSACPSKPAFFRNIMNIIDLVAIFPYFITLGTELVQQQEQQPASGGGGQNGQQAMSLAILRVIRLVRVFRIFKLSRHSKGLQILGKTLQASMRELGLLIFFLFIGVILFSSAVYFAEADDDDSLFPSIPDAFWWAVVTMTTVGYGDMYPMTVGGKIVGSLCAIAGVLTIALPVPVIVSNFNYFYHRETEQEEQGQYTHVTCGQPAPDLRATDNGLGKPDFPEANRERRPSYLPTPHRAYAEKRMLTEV

hKv1.7 [8] = biological target: T5, hKv1.7 (Homo sapiens, UniProt Q96RP8); assay: cell-based or functional assay
T5 sequence (Q96RP8 whole entry): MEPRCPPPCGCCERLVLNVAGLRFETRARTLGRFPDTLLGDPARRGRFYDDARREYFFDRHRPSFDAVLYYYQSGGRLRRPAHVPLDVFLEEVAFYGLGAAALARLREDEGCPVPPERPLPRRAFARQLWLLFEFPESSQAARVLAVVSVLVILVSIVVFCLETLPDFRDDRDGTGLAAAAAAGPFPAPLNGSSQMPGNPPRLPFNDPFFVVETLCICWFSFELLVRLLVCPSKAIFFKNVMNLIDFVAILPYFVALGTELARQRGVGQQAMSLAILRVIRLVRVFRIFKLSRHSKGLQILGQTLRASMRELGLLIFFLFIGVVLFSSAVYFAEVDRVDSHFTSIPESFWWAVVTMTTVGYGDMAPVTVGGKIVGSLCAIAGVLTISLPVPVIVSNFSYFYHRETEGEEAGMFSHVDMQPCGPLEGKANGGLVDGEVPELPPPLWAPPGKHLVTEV

hKv4.3 (Ito) (human) = hKv4.3 (Ito) (human) (UniProt Q9UK17); assay: cell-based or functional assay
Sequence of hKv4.3 (Ito) (human) (Q9UK17 whole entry): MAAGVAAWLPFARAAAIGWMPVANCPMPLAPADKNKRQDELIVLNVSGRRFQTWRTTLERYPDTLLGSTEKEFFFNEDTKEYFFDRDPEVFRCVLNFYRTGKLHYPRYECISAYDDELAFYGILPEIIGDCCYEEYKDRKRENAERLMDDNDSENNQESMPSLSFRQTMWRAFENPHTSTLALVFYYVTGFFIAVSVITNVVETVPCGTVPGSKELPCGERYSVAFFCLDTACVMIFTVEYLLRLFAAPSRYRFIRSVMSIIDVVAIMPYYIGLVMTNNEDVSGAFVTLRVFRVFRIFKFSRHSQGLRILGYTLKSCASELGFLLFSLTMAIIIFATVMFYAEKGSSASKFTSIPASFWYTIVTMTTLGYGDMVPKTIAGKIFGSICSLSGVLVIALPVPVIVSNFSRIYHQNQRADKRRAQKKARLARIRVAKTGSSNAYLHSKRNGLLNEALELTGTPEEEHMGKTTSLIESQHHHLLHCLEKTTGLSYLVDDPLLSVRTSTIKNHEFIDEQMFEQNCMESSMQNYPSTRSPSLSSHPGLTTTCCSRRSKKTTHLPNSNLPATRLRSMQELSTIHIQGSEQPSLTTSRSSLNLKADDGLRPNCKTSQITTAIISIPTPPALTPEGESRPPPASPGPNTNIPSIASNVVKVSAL

hNav1.5 (INa) (human) = hNav1.5 (INa) (human) (UniProt Q14524); assay: cell-based or functional assay
human Kv1.1 [9] = biological target: T6, human Kv1.1 (Homo sapiens, UniProt Q09470); assay: cell-based or functional assay
T6 sequence (Q09470 whole entry): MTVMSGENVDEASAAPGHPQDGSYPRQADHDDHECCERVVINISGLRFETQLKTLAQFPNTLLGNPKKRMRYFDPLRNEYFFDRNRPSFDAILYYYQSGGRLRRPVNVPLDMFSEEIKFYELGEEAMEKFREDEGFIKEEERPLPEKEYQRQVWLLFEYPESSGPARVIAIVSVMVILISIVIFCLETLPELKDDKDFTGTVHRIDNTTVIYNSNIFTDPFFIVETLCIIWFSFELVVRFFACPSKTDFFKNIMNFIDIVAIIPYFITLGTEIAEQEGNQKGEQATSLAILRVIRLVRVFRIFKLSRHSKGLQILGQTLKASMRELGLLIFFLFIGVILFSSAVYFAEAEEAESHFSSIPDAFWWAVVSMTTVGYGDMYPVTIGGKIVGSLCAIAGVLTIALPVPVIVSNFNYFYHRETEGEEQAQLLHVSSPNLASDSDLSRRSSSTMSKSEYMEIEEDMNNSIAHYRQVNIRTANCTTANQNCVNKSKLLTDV

human Kv1.3 [10] = biological target: T7, human Kv1.3 (Homo sapiens, UniProt P22001); assay: cell-based or functional assay
T7 sequence (P22001 whole entry): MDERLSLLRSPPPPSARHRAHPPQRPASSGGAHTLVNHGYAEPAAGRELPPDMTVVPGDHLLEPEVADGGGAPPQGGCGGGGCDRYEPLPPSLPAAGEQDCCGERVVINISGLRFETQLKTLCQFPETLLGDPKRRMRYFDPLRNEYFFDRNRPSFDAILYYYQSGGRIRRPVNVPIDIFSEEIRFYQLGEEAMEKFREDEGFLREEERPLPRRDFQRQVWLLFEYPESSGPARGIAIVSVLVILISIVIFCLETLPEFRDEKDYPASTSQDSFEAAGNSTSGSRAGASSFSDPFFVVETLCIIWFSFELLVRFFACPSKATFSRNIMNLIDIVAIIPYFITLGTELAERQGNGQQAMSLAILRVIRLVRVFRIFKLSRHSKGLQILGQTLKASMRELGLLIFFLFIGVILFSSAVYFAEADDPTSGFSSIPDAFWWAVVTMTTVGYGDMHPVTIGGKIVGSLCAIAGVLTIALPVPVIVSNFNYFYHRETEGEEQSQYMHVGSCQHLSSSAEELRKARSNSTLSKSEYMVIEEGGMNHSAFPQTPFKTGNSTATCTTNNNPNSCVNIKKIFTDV

[11] = biological target: Glycine (Strychnine insensitive) (Cerep target) (human); assay: Cerep safety pharmacology binding assay
[12] = biological target: NMDA (Cerep target) (human); assay: Cerep safety pharmacology binding assay
hKv1.3 [13] = biological target: T8, hKv1.3 (Homo sapiens, UniProt P22001); assay: cell-based
T8 sequence (P22001 whole entry): as above

hKv1.3 [14] = biological target: T8, hKv1.3; assay: cell-based; format: cell-based
[15] = test system: IL-2 secretion from T cells in human whole blood; format: cell-based
[16] = test system: IFN-g secretion from T cells in human whole blood; format: cell-based
human Kv1.1 [17] = biological target: T6, human Kv1.1; format: cell-based; details: read-out: Kv1.1 IC50, whole cell patch clamp
human Kv1.3 [18] = biological target: T7, human Kv1.3; format: cell-based; details: for IC50: read-out: Kv1.3 IC50, whole cell patch clamp
hKv1.2 [19] = biological target: T1, hKv1.2; format: cell-based; details: PatchXpress; read-out: Kv1.2 IC50
Description: (§1) Kv1.1, Kv1.2, Kv1.3, Kv1.4, Kv1.6 and Kv1.7, PatchXpress®, planar patch-clamp electrophysiology. Ion channel currents were recorded at room temperature using PatchXpress® 7000A electrophysiology system from MDC using methods and cells described in Example 1 above.

hKv1.4 [20] = biological target: T2, hKv1.4; format: cell-based; details: PatchXpress; read-out: Kv1.4 IC50
Description: as §1

hKv1.6 [21] = biological target: T4, hKv1.6; format: cell-based; details: PatchXpress; read-out: Kv1.6 IC50
Description: as §1

hKv1.7 [22] = biological target: T5, hKv1.7; format: cell-based; details: PatchXpress; read-out: Kv1.7 IC50
Description: as §1

[23] = test system: rat T effector memory cell line, PAS; format: cell-based; details: read-out: IC50 inhibition of myelin-specific proliferation of PAS T cells
[24] = format: in vivo, rat
Excerpt: Single subcutaneous doses were delivered to animals and serum was collected at various time points after injection. Studies in rats, dogs (beagles), and cynomolgus monkeys involved two to three animals per dose group, with blood and serum collection occurring at various time points over the course of the study. Male Sprague-Dawley (SD) rats (about 0.3 kg), male beagles (about 10 kg) and male cynomolgus monkeys (about 4 kg) were used in the studies described herein (n=3 animals per dose group). Approximately 5 male CD-1 mice were used per dose and time point in our mouse pharmacokinetic studies. Serum samples were stored frozen at −80° C., until analysis in an enzyme-linked immunosorbent assay (ELISA).
Single subcutaneous doses were delivered to animals and serum was collected at various time points after injection. Three animals were used per dose group, with blood and serum collection occurring at various time points over the course of the study. Serum samples were stored frozen at −80° C., until analysis in an enzyme-linked immunosorbent assay (ELISA). […] A brief description of these ELISA protocols is provided: […]

hKv1.5 [25] = biological target: T3, hKv1.5; details: read-out: Kv1.5 IC50; PatchXpress
[26] = format: in vivo, rat; details: male SD rats, single SC dose
Description: Hypoactivity and lateral recumbence were also observed at 0.4 mg/kg. […] The severity of swelling was not dose dependent, and all clinical observations noted in all groups that survived to their scheduled euthanasia resolved by approximately 24 hours postdose. […] Other changes noted at lower doses were limited to decreased lymphocytes and triglycerides at 0.4 mg/kg.
All clinical signs were resolved by day 11. […] Hematologic effects in animals given ≧0.5 mg/kg/day were consistent with increased red cell turnover, and correlated with increased spleen weights, and increased splenic hemopoiesis.
Exposures increased with increasing dose up to 2.5 mg/kg, but exposures were similar in rats given 2.5 and 5.0 mg/kg. […] There was a decrease in body weight and body weight gain noted in the 2.5 and 5.0 mg/kg/dose groups. […] Urine chemistry values were increased in a few animals/group at 0.5 or 2.0 mg/kg/day, but these changes were inconsistent among and within animals, and considered unlikely to be related to treatment. There were no test article-related effects on biomarkers of renal injury (beta-2 microglobulin, calbindin, clusterin, cystatin C, glutathione S-transferase alpha, kidney injury molecule-1, neutrophil gelatinase-associated lipocalin, osteopontin, tissue inhibitor of metalloproteinase-1, and vascular endothelial growth factor). […]

[27] = Sprague-Dawley rats, single SC 6 mg/kg

Q: For 20 kDa PEG-[Lys16]ShK (peptide), which % Inhibition [1] is on record?
A: 101%

Q: And the % Inhibition [2]?
A: 71%

Q: What about the BKCa IC50 (BKCa (human)) of the same compound?
A: > 10000 nM

Q: What about the cyno whole blood PD assay, IL-4 response IC50 [3] of the same compound?
A: 0.17 nM

Q: What about the cyno whole blood PD assay, IL-17 response IC50 [3] of the same compound?
A: 0.09 nM

Q: What about the Cav1.2 (ICa) IC50 (hCav1.2 (ICa) (human)) of the same compound?
A: > 30000 nM

Q: And the hERG (IKr) IC50 (hERG (IKr) (human))?
A: > 10000 nM

Q: And the Kv1.2 IC50 (hKv1.2 [4])?
A: 639 nM

Q: And the Kv1.4 IC50 (hKv1.4 [5])?
A: > 10000 nM

Q: What about the Kv1.5 IC50 (hKv1.5 [6]) of the same compound?
A: > 30000 nM

Q: What about the Kv1.6 IC50 (hKv1.6 [7]) of the same compound?
A: 466 nM

Q: What about the Kv1.7 IC50 (hKv1.7 [8]) of the same compound?
A: > 10000 nM

Q: What about the Kv4.3 (Ito) IC50 (hKv4.3 (Ito) (human)) of the same compound?
A: > 30000 nM

Q: And the Nav1.5 (INa) IC50 (hNav1.5 (INa) (human))?
A: > 30000 nM

Q: And the Kv1.1 (IWQ) IC50 (human Kv1.1 [9])?
A: 1080 nM

Q: What about the IFNγ production in human whole blood IC50 (human Kv1.3 [10]) of the same compound?
A: 0.24 nM

Q: What about the IL-2 production in human whole blood IC50 (human Kv1.3 [10]) of the same compound?
A: 0.109 nM

Q: And the Kv1.3 (IWQ) IC50 (human Kv1.3 [10])?
A: 0.665 nM

Q: What about the WB (IFNg) IC50 (human Kv1.3 [10]) of the same compound?
A: 0.215 nM

Q: What about the WB (IL-2) IC50 (human Kv1.3 [10]) of the same compound?
A: 0.104 nM

Q: What about the whole blood IL-2 secretion IC95 (human Kv1.3 [10]) of the same compound?
A: 1.01 nM

Q: And the IC50 [11]?
A: 1700 nM

Q: What about the IC50 [12] of the same compound?
A: 10000 nM

Q: For `CC[C@H](C)[C@@H]1NC(=O)[C@@H](NC(=O)[C@H](CO)NC(=O)[C@@H](N)CCCNC(=N)N)CSSC[C@@H](C(=O)N[C@@H](C)C(=O)O)NC(=O)[C@H]([C@@H](C)O)NC(=O)CNC(=O)[C@@H]2CSSC[C@@H]3NC(=O)[C@H](CCCCN)NC(=O)[C@H](Cc4ccccc4)NC(=O)[C@H](C)NC(=O)[C@H]([C@@H](C)O)NC(=O)[C@H](CSSC[C@H](NC(=O)[C@H](Cc4ccccc4)NC(=O)[C@H](CO)NC(=O)[C@H](CC(C)C)NC(=O)[C@H](CCCNC(=N)N)NC(=O)[C@H](Cc4ccc(O)cc4)NC(=O)[C@H](CCCCN)NC(=O)[C@H](CCSC)NC(=O)[C@H](CO)NC(=O)[C@H](Cc4c[nH]cn4)NC(=O)[C@H](CCCCN)NC3=O)C(=O)N[C@@H](CCCNC(=N)N)C(=O)N[C@@H](CCCCN)C(=O)N[C@@H]([C@@H](C)O)C(=O)N2)NC(=O)[C@H](CCCNC(=N)N)NC(=O)[C@H](CO)NC(=O)[C@H](CCCCN)NC(=O)[C@@H]2CCCN2C(=O)[C@H]([C@@H](C)CC)NC(=O)[C@H]([C@@H](C)O)NC(=O)[C@H](CC(=O)O)NC1=O` [[Lys16]ShK-Ala], which IC50 (hKv1.3 [13]) is on record?
A: 0.06 nM

Q: What about the IC50 (hKv1.3 [14]; Kv1.3 (IWQ) IC50 (nM, Avg)) of the same compound?
A: 9.5 nM

Q: What about the IC50 ([15]; read-out: IC50 blocking IL-2 secretion from human whole blood) of the same compound?
A: 0.138 nM

Q: And the IC50 ([15]; read-out: WB (IL-2) IC50)?
A: 0.138 nM

Q: And the IC50 ([15]; read-out: WB (IL-2) IC50 (nM, Avg))?
A: 0.138 nM

Q: What about the IC50 ([16]; read-out: WB (IFNg) IC50) of the same compound?
A: 0.266 nM

Q: And the IC50 ([16]; read-out: WB (IFNg) IC50 (nM, Avg))?
A: 0.266 nM

Q: Which IC50 (human Kv1.1 [17]) does the source give for “Bivalent Fc-L10-ShK[1-35] homodimer: bivalent IgG1 Fc-L10-ShK[1-35] peptibody, Example 1 of WO2008/088422A2 (GGGGSGGGGSRSCIDTIPKSRCTAFQCKHSMKYRLSFCRKTCGTC; not fully specified (N-terminus); ends and bridges not checked; also: homodimer (bivalent Fc peptibody))” here?
A: 0.067 nM

Q: And the IC50 ([15]; read-out: WB (IL-2) IC50)?
A: 0.386 nM

Q: What about the IC50 ([16]; read-out: WB (IFNg) IC50) of the same compound?
A: 0.32 nM

Q: Which “Kv1.1/Kv1.3 Selectivity Ratio” value (human Kv1.3 [18]) does the source give for “Bivalent Fc-L10-ShK[2-35] homodimer: bivalent IgG1 Fc-L10-ShK[2-35] peptibody, Example 2 of WO2008/088422A2 (Fc-GGGGSGGGGSSCIDTIPKSRCTAFQCKHSMKYRLSFCRKTCGTC; ends and bridges not checked; also: homodimer via IgG1 Fc)” here?
A: 3.54

Q: And the IC50 (human Kv1.3 [18])?
A: 0.116 nM

Q: What about the IC50 (human Kv1.1 [17]) of the same compound?
A: 0.411 nM

Q: What about the “Potency Relative to ShK (WB, IL2)” value [15] of the same compound?
A: 8.73

Q: And the IC50 ([15]; read-out: WB (IL-2) IC50)?
A: 0.585 nM

Q: And the IC50 ([16]; read-out: WB (IFNg) IC50)?
A: 2.29 nM

Q: Which IC50 (human Kv1.3 [18]) does the source give for “Monovalent aKLH HC-ShK(1-35 Q16K) Ab: anti-KLH IgG2 antibody with [Lys16]ShK fused to the C-terminus of one heavy chain” here?
A: 0.354 nM

Q: And the IC50 ([15]; read-out: WB (IL-2) IC50)?
A: 0.292 nM

Q: And the IC50 ([16]; read-out: WB (IFNg) IC50)?
A: 0.657 nM

Q: And the IC50 (hKv1.2 [19])?
A: 7970 nM

Q: And the IC50 (hKv1.4 [20])?
A: > 10000 nM

Q: And the IC50 (hKv1.6 [21])?
A: > 616 nM

Q: What about the IC50 (hKv1.7 [22]) of the same compound?
A: > 10000 nM

Q: And the IC50 [23]?
A: 0.839 nM

Q: What about the “Exposure (AUC0-inf) normalized for MW, times greater than ShK-L5” value ([24]; 150 kDa//4 kDa) of the same compound?
A: about 163 times

Q: And the AUC0-t [24, 27]?
A: 481 ± 157 µg·h/mL

Q: And the Cmax [24, 27]?
A: 5.89 ± 1.77 µg/mL

Q: And the HL [24, 27]?
A: 32 ± 13.9 h

Q: And the Tmax [24, 27]?
A: 32 ± 13.9 h

Q: And the IC50 (hKv1.5 [25])?
A: > 10000 nM

Q: For “PEG-[1-Nal 16]ShK: PEG conjugate of the 1-Nal16 analog of ShK, relatively Kv1.3-inactive (RSCIDTIPKSRCTAFXCKHSMKYRLSFCRKTCGTC; PEG; ShK PEGylated toxin peptide analog; PEGylated; 3-(1-naphthyl)alanine)”, which “Times less activity of the PEG conjugate than of the free peptide (Kv1.3)” value (hKv1.3 [14]) is on record?
A: about 57 times

Q: And the “Molar AUC exposure compared with PEG-[Lys16]ShK and anti-KLH Ab-[Lys16]ShK” value [26]?
A: 6-8 ×
